From patent publication US20250084178A1, “ANTI-CD39 ANTIBODIES AND USE THEREOF” (ARCUS BIOSCIENCES, INC., priority 2022, published 2025)
“Also recorded” adds a separate entry of the source.

Assays:
human CD39 [1] = target: T1, human CD39 (Homo sapiens, UniProt P49961); experiment: Tumor draining lymph node cell surface CD39; format: in vivo, mouse; conditions: tumor draining lymph nodes, hCD39KI MC38 mice
T1 sequence (P49961 1-510): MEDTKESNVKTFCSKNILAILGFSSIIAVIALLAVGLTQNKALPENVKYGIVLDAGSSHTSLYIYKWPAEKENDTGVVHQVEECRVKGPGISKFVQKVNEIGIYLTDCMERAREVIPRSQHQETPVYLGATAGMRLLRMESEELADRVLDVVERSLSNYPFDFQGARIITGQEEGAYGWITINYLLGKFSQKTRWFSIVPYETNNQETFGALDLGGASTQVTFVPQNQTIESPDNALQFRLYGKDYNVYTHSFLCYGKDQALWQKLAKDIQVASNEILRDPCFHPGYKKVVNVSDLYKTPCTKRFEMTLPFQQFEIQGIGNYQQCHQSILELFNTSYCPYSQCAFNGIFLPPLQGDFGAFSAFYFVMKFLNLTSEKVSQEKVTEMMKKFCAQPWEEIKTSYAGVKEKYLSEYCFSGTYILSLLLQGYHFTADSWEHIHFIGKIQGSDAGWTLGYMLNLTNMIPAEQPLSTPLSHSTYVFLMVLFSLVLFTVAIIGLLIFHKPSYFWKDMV
Method: (§1) Cell surface CD39 decreases with anti-CD39 treatment in tumor draining lymph nodes of hCD39KI mice. Tumor draining lymph nodes (TLDNs) (right inguinal lymph node) were also collected at the end of the C57BL/6 hCD39KI MC38 mouse study described above. Lymph nodes were dissociated in a 37° C. water bath in RPMI 1640 (Gibco, Cat. No. 11875119) containing of 0.6 mg/mL Collagenase P (Roche, Cat. No. 11213865001), 2.4 mg/mL Dispase II (Sigma, Cat. No. D4693), and 0.3 mg/mL DNAse I (Thermo Scientific, Cat. No. J62229 MB) for 30 minutes with gentle agitation. The dissociated lymph nodes were counted and 2×10^5 cells per well were plated in a 96-well polypropylene v-bottom plate. Cells were washed in PBS (Gibco, Cat. No. 14190-144) and resuspended in a PBS solution containing 1:25 Fc Block (BD, Cat. No. 564220) and 1:250 Near IR Fluorescent Reactive Dye (Invitrogen, Cat. No. L34976A) for 15 minutes in the dark. After the incubation, the cells were stained with an antibody cocktail (Table 20) and incubated for 30 minutes at 4° C. After the incubation, the cells were pelleted, supernatant removed, and 100 μL of fixation buffer (eBioscience, Cat. No. 00-8222-49) was added for 1 hour. […]

CD39 enzymatic activity [2] = target: T2, CD39 enzymatic activity (Homo sapiens, UniProt P49961); experiment: Ex vivo peripheral white blood cell CD39 enzymatic activity; format: in vivo, mouse; conditions: white blood cells of 4T1 tumor-bearing hCD39KI mice, 20 μM ATP
T2 construct: from tissue; host or cells: hCD39KI mice (C57BL/6 with MC38, BALB/c with 4T1): tumours, spleen, whole blood / WBCs, tumour-draining lymph nodes
T2 sequence (P49961 1-510): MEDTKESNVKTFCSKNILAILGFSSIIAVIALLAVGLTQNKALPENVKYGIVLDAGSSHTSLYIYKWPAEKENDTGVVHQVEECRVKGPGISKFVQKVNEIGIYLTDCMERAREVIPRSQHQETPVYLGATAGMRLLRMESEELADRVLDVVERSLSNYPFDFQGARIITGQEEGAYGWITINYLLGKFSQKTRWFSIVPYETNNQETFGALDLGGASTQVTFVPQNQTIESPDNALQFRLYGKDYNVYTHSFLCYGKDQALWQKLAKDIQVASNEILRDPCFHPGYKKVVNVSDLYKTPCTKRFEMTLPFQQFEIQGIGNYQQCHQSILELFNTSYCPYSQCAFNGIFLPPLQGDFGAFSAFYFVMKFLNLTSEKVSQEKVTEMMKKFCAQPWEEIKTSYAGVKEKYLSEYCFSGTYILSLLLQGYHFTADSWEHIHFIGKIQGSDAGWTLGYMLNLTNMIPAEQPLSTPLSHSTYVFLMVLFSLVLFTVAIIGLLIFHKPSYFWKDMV
From the text: To assay peripheral CD39 enzymatic activity, peripheral white blood cells (WBCs) were isolated from terminal blood samples of hCD39KI mice and assayed as generally described for the tumor cell suspensions. Briefly, whole blood samples were mixed with 1×Pharm Lyse red blood cell lysing solution (BD Biosciences, Cat. No. 555899). WBC pellets were then collected after washing with 1×PBS solution and stored in BamBanker cell freezing medium (Bulldog Bio, Cat. No. BB01). To perform the enzymatic inhibition assay, samples were thawed and then cells were plated at 2.5×10^4 cells per well in a 96-well plate. […] All wells were then treated with 20 μM ATP and incubated for 2 hours at room temperature. At the end of the incubation period, the 96-well plate was spun at 1000 rpm for 3 minutes and the supernatant was collected. 2× Kinase-Glo® Plus (Promega, Cat. No. V3771) was then added to the supernatants. ATP levels in the supernatants were then measured by detecting luminescence using Flexstation® 3 microplate reader. Data are presented as relative luminescence units (RLU).

[3] = Body weight of hCD39KI MC38 mice; format: in vivo, mouse; conditions: over the course of the experiment; C57BL/6 hCD39KI MC38 mice
Method: (§2) In one experiment, C57BL/6 hCD39KI mice were inoculated with 1 million MC38 cells on day 0. When tumors reached 80 mm^3, mice were dosed intraperitoneally (i.p.) with a loading dose of 20 mg/kg anti-CD39 or isotype control antibody (vehicle: PBS), and then subsequently with 10 mg/kg anti-CD39 or isotype control antibody 2×/week (BIW). Each group consisted of 11-12 mice. […] Oxaliplatin (OXA) treatment, 5 mg/kg i.p. (vehicle: saline), was initiated the day following the anti-CD39 or isotype control loading dose and dosed 1×/week. In a similarly designed experiment, BALB/c hCD39KI mice were inoculated with 4T1 cells on day 0 and treated OXA or anti-CD39 antibody as described for the MC38 model.
(§3) Tumor volume and body weight were measured approximately twice a week (BIW) and are shown in FIG. 10A and FIG. 10B respectively, where the points represent the mean and the errors bars the standard error of the mean (SEM) of the respective metrics from each group of mice. Significance was calculated using a mixed-effects model with multiple comparisons. […] Body weight was stable over the course of the experiment indicating anti-CD39 treatment was well tolerated (FIG. 10B).

[4] = Peripheral cytokine levels in plasma (MSD); format: in vivo, mouse; conditions: terminal bleed, mice bearing MC38 tumors
Method: A terminal bleed of the mice bearing MC38 tumors were collected into BD Vacutainer® Heparin Tubes (BD Biosciences, Cat. No. 367871), centrifuged at 2000×g for 15 minutes, and supernatant plasma samples were collected. Cytokine levels in the plasma samples were analyzed using MSD following manufacturer's instructions. […] Data are presented as mean±SEM with a total of 11-12 mice per treatment group (FIG. 18). Statistical analyses were performed using an ANOVA with Tukey's multiple comparison test.

CD39 enzymatic activity [5] = target: T2, CD39 enzymatic activity; experiment: Ex vivo intratumoral CD39 enzymatic activity (Kinase-Glo Plus); format: in vivo, mouse; conditions: MC38 and 4T1 tumor cell suspensions, 20 μM ATP
Method: Intratumoral and peripheral CD39 enzymatic activity was also evaluated ex vivo. Upon study completion, tumor samples obtained after sacrificing C57BL/6 hCD39KI MC38 and BALB/c hCD39KI 4T1 mice were placed in RPMI+20% FBS+250 μg/ml collagenase D (Millipore Sigma, Cat. No. 11088858001)+100 KU/ml DNAse 1 (Millipore Sigma Cat. No. D5025-150KU) and enzymatically digested using gentleMACS™ Octo Dissociator to obtain a single cell suspension. […] The cells were then treated with 20 μM ATP and incubated for an additional 30 minutes at 37° C., 5% CO2. At the end of the incubation period, the 96-well plate was spun at 1000 rpm for 3 minutes and the supernatant was collected. 2× Kinase-Glo® Plus (Promega, Cat. No. V3771) was then added to the supernatants. ATP levels in the supernatants were then measured by detecting luminescence using Flexstation® 3 microplate reader. Data are presented as relative luminescence units (RLU).

human CD39 [6] = target: T1, human CD39; experiment: Enzyme histochemistry of tumors and spleens from C57BL/6 hCD39KI MC38 mice; design: species or system mouse; conditions: tumors and spleens treated in vivo, end of study
Method: Tumors and spleens from C57BL/6 hCD39KI MC38 mice at the end of the study were additionally analyzed for human CD39 expression by immunohistochemistry (IHC) and evidence of anti-CD39 antibody enzymatic blocking activity by enzyme histochemistry (EHC). Briefly, frozen OCT-embedded tumor or spleen samples were sectioned at 4 um thickness, mounted on positively charged microscope slides, air dried for 15 minutes, then placed in 4% paraformaldehyde (PFA) fixative for 20 min. After fixation, the slides were washed in Tris-buffered saline and IHC was performed on an automated Leica Bond Rx platform starting with blocking of endogenous peroxidases, followed by incubation with a rabbit anti-CD39 mAb (Abcam, EPR20627), and detected with an anti-rabbit HRP polymer system followed by a diaminobenzidine (DAB) brown chromogen, hematoxylin nuclear counterstain, and then dehydrated and mounted. […] Human CD39 expression was detected in both isotype treated (FIG. 11, panel A and FIG. 12, panel A, low- and high-power magnification, respectively) and anti-CD39 treated tumors (FIG. 11, panel C and […], low- and high-power magnification, respectively), localized to vascular endothelia, infiltrating immune cells, and stromal components of the tumor microenvironment. […]

MC38 tumors = experiment: MC38 tumor volume in C57BL/6 hCD39KI mice; format: in vivo, mouse; conditions: anti-CD39 20 mg/kg loading then 10 mg/kg BIW i.p. with oxaliplatin 5 mg/kg i.p. 1×/week; mixed-effects model
Method: as §2, §3

[7] = system: immune subpopulations in tumor draining lymph nodes; experiment: Tumor draining lymph node immune subpopulation percentages; format: in vivo, mouse; conditions: single agent or in combination with oxaliplatin
Method: as §1

B1: ch39_mIGG2A.AAG: antibody 39 variable regions on mouse IgG2a; HC SEQ ID NO: 41, LC SEQ ID NO: 42; the anti-CD39 of Example 9 (antibody)
heavy: EVQLVESGGGLVQPGRSLKLSCLASGFTFNNYGMNWIRQAPGKGLEWVASFSSSSTYISYADTVKGRFTISRENAKNTLYLQMTSLRSEDTALYYCVRHGRYGGYGGFYFDYWGQGVMVTVSSAKTTAPSVYPLAPVCGDTTGSSVTLGCLVKGYFPEPVTLTWNSGSLSSGVHTFPAVLQSDLYTLSSSVTVTSSTWPSQSITCNVAHPASSTKVDKKIEPRGPTIKPCPPCKCPAPNAAGGPSVFIFPPKIKDVLMISLSPIVTCVVVDVSEDDPDVQISWFVNNVEVHTAQTQTHREDYNSTLRVVSALPIQHQDWMSGKEFKCKVNNKDLGAPIERTISKPKGSVRAPQVYVLPPPEEEMTKKQVTLTCMVTDFMPEDIYVEWTNNGKTELNYKNTEPVLDSDGSYFMYSKLRVEKKNWVERNSYSCSVVHEGLHNHHTTKSFSRTPGK
light: DTVLTQSPALAVSPGERVSISCRASEGVKSYMHWYQQKPGQQPKLLIYKASNLASGVPARFSGSGSGTDFTLTIDPVEADDTATYFCQQSWNDPTFGAGTKLELKRADAAPTVSIFPPSSEQLTSGGASVVCFLNNFYPKDINVKWKIDGSERQNGVLNSWTDQDSKDSTYSMSSTLTLTKDEYERHNSYTCEATHKTSTSPIVKSFNRNEC
- Human CD39 on the surface of immune subpopulations (human CD39 [1]): significant reduction; also recorded: significant decrease
- Peripheral CD39 enzymatic activity (CD39 enzymatic activity [2]): inhibited
- Body weight [3]: stable
- Peripheral cytokine levels [4]: No elevation
- Intratumoral CD39 enzymatic activity (CD39 enzymatic activity [5]): inhibited
- Lead-phosphate deposition by enzyme histochemistry (CD39 enzymatic activity) (human CD39 [6]): enzymatic activity has been blocked
- Tumor volume: p for anti-CD39+saline vs. anti-CD39+OXA (MC38 tumors): 0.0217
- Tumor volume: p for isotype+OXA vs. anti-CD39+OXA (MC38 tumors): 0.0372
- Immune subpopulation percentages [7]: did not result in significant changes
- Immune subpopulation percentages ([7]; listed as anti-CD39): No significant changes
